# Reference: publication PMC9049607
# Assays:
# Assay in all cases: purified protein
# purified protein [1] = substrate: NC(=O)C1=CN([C@@H]2O[C@H](COP(=O)(O)OP(=O)(O)OC[C@H]3O[C@@H](n4cnc5c(N)ncnc54)[C@H](O)[C@@H]3O)[C@@H](O)[C@H]2O)C=CC1; conditions: 5 mM (E/Z)-citral, 100 mM PBS pH 8.0, 30°C, varied: cofactor
# purified protein [2] = substrate: CC(C)=CCC/C(C)=C/C=O; conditions: 0.2 mM NADH, 100 mM PBS pH 8.0, 30°C
# purified protein [3] = substrate: CC(C)=CCC/C(C)=C\C=O; conditions: 0.2 mM NADH, 100 mM PBS pH 8.0, 30°C
protein,measurement,setting,value
OYE2p (Saccharomyces cerevisiae S288C) (protein) PFVKDFKPQALGDTNLFKPIKIGNNELLHRAVIPPLTRMRAQHPGNIPNRDWAVEYYAQRAQRPGTLIITEGTFPSPQSGGYDNAPGIWSEEQIKEWTKIFKAIHENKSFAWVQLWVLGWAAFPDTLARDGLRYDSASDNVYMNAEQEEKAKKANNPQHSITKDEIKQYVKEYVQAAKNSIAAGADGVEIHSANGYLLNQFLDPHSNNRTDEYGGSIENRARFTLEVVDAVVDAIGPEKVGLRLSPYGVFNSMSGGAETGIVAQYAYVLGELERRAKAGKRLAFVHLVEPRVTNPFLTEGEGEYNGGSNKFAYSIWKGPIIRAGNFALHPEVVREEVKDPRTLIGYGRFFISNPDLVDRLEKGLPLNKYDRDTFYKMSAEGYIDYPTYEEALKLGWDKN,Km,purified protein [1],14 ± 4 µM
same,Km,purified protein [2],120 ± 25 µM
same,kcat,purified protein [2],0.213 ± 0.008 s⁻¹
same,kcat/Km,purified protein [2],1780 ± 305 M⁻¹ s⁻¹
same,Km,purified protein [3],310 ± 47 µM
same,kcat,purified protein [3],0.13 ± 0.008 s⁻¹
same,kcat/Km,purified protein [3],421 ± 39 M⁻¹ s⁻¹
